5 molecules from paper PMC5383399, “Kinesin-4 KIF21B is a potent microtubule pausing factor” (eLife, 2017) can be followed below.

Series [1] has as its target KIF21B-MD-CC1-GFP (purified) (human). The series is described as follows: single-molecule fluorescence intensity and photobleaching-step analysis (TIRF); purified GFP fusions diluted in PBS and immobilized on plasma-cleaned coverslips, room temperature; compared with monomeric GFP and dimeric GFP-EB3.
For series [2] the target is unchanged. The series is described as follows: single-molecule fluorescence intensity analysis (TIRF); GFP-tagged motors moving on MTs, compared with single GFP immobilized, or KIF5B-560-GFP moving, in a separate chamber on the same coverslip; 15 µM tubulin, 20 nM mCherry-EB3, MRB80 with 50 mM KCl, 30°C.
Series [3] addresses KIF21B-FL-ΔrCC-GFP (human). The series can be described thus: single-molecule fluorescence intensity and photobleaching-step analysis (TIRF); purified GFP fusions diluted in PBS and immobilized on plasma-cleaned coverslips, room temperature; compared with monomeric GFP and dimeric GFP-EB3.
Series [4] concerns the target KIF21B-FL-GFP (full-length KIF21B-GFP) (human). Described as above.
Series [5] has the same target. The series can be described thus: single-molecule fluorescence intensity analysis (TIRF); GFP-tagged motors moving on MTs, compared with single GFP immobilized, or KIF5B-560-GFP moving, in a separate chamber on the same coverslip; 15 µM tubulin, 20 nM mCherry-EB3, MRB80 with 50 mM KCl, 30°C.
Series [6] has as its target KIF21B-MD-CCΔrCC-GFP (human). The series can be described thus: single-molecule fluorescence intensity and photobleaching-step analysis (TIRF); purified GFP fusions diluted in PBS and immobilized on plasma-cleaned coverslips, room temperature; compared with monomeric GFP and dimeric GFP-EB3.
Series [7] deals with the molecule itself. The series is described as follows: single-molecule fluorescence intensity analysis (TIRF); GFP-tagged motors moving on MTs, compared with single GFP immobilized, or KIF5B-560-GFP moving, in a separate chamber on the same coverslip; 15 µM tubulin, 20 nM mCherry-EB3, MRB80 with 50 mM KCl, 30°C.

As to “KIF21B-MD-CC1-GFP (purified) (domain or fragment)”, the stoichiometry N (in general, a count of units in the complex or per binding partner) in series [1] came to 2. For the same molecule, the fluorescence intensity relative to single monomeric GFP in series [2] came out at 1.8 fold.
KIF21B-FL-ΔrCC-GFP (natural protein) gave a stoichiometry N in series [3] of 2.
“KIF21B-FL-GFP (full-length KIF21B-GFP) (natural protein)”: the stoichiometry N in series [4] and in series [5] was 2 each time.
In the case of “KIF21B-MD-CCΔrCC-GFP (domain or fragment)”, the stoichiometry N in series [6] was 2.

B1: KIF5B-560-GFP (domain or fragment, UniProt P33176 1-560, looked up)
chain: MADLAECNIKVMCRFRPLNESEVNRGDKYIAKFQGEDTVVIASKPYAFDRVFQSSTSQEQVYNDCAKKIVKDVLEGYNGTIFAYGQTSSGKTHTMEGKLHDPEGMGIIPRIVQDIFNYIYSMDENLEFHIKVSYFEIYLDKIRDLLDVSKTNLSVHEDKNRVPYVKGCTERFVCSPDEVMDTIDEGKSNRHVAVTNMNEHSSRSHSIFLINVKQENTQTEQKLSGKLYLVDLAGSEKVSKTGAEGAVLDEAKNINKSLSALGNVISALAEGSTYVPYRDSKMTRILQDSLGGNCRTTIVICCSPSSYNESETKSTLLFGQRAKTIKNTVCVNVELTAEQWKKKYEKEKEKNKILRNTIQWLENELNRWRNGETVPIDEQFDKEKANLEAFTVDKDITLTNDKPATAIGVIGNFTDAERRKCEEEIAKLYKQLDDKDEEINQQSQLVEKLKTQMLDQEELLASTRRDQDNMQAELNRLQAENDASKEEVKEVLQALEELAVNYDQKSQEVEDKTKEYELLSDELNQKSATLASIDAELQKLKEMTNHQKKRAAEMMASLLK
notes: KIF5B (kinesin-1), residues 1–560; also called N-terminal fragment of kinesin-1, KIF5B residues 1–560; not shown: GFP, C-terminal, kept
As for B1, in series [7], the “fluorescence intensity relative to single monomeric GFP” value is around 1.8 fold and the “stoichiometry N” value is 2.
